Target: His827 (UniProt position 827, GQFLDHDLDST)
Experiment: kinetics (stopped-flow UV-vis spectroscopy)
Details: 25 °C (stated for the stopped-flow reactions in general; not restated for the pH profile); Citrate phosphate buffer pH 4-5.5; phosphate buffer pH 5.5-8; carbonate buffer pH 9 and 10. A concentration of 100 mM is given for the analogous bromide pH profile in the Fig. 7D caption.; Ferric high-spin resting enzyme reacting with H2O2 to form compound I; heme covalently linked

**Q.** With “Peroxidasin 1, truncated construct hsPxd01-con4 (four Ig domains + peroxidase domain) (Homo sapiens)” as the substance, how does the pKa read?
**A.** ∼4.7
